This experiment has as its target T1, CS-1 (human, UniProt Q9NQ25 23-335).
T1 sequence (looked up): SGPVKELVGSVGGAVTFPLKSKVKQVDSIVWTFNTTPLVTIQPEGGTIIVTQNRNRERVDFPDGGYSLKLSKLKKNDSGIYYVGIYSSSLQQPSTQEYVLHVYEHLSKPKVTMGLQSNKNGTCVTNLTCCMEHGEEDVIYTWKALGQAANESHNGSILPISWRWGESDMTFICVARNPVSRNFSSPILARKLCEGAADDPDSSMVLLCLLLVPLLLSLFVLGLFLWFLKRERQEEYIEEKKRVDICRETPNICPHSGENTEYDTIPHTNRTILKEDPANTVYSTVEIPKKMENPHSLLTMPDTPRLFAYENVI
Put plainly: cell-based or functional assay.

B1: anti-CS-1 tri-specific cytotoxic lymphocytes engager (TriCLE) (bispecific antibody)
chain: QVQLVESGGGLVKPGGSLRLSCAASGFTFSSYGMHWVRQAPGKGLEWVAFIRYDGSNKYYADSVKGRFTISRDNSKNTLYLQMNSLRAEDTAVYYCAKDRGLGDGTYFDYWGQGTTVTVSSGGGGSGGGGSGGGGSQSALTQPASVSGSPGQSITISCSGSSSNIGNNAVNWYQQLPGKAPKLLIYYDDLLPSGVSDRFSGSKSGTSAFLAISGLQSEDEADYYCAAWDDSLNGPVFGGGTKLTVLPSGQAGAAASESLFVSNHAYKLELKTGAGFTLPTSYHQQCYYVALDEAQVNSITFTFDTGSGSGTFRDPVGTYRYSASYILLKPSQGPKQQYWAVGTIVDQSAKCTISVRDGVSTSMSKQSQTMVIDGGGGSGGGGSGGGGSSVTVSTGQGWYDMARTAIMTSRACYYVASDESTPSSLQMYATSSSKDVTLTAKDKFKQNLRTESDSPHIMGIWELGQGPRQKVWNMWYTTFSYGSAKCSLKVSAGPRVLEAGPQQLQVQSHHHHHH
In the case of B1, the “EC50 of cytotoxicity of TriCLE-activated PBMCs against H929” value amounted to 1.2 nM, the “EC50 of cytotoxicity of TriCLE-activated PBMCs against MM1.s” value stood at 0.003 nM and the “EC50 of cytotoxicity of TriCLE-activated PBMCs against RPMI-8226” value is 1.8 nM.
